Test results from publication PMC3678299 (FEBS Open Bio, 2013).

Target: the molecule itself
Test: cross-linking; chemical cross-linking in TrkA-transfected PC12 cells, with or without LPC; data not shown

B1: tropomyosin-related kinase A (TrkA) (receptor)
chain: not shown
With B1 the “stoichiometry N” value was 2.
